B1: LCAT (lecitin:cholesterol acyltransferase) (protein)
chain: FWLLNVLFPPHTTPKAELSNHTRPVILVPGCLGNQLEAKLDKPDVVNWMCYRKTEDFFTIWLDLNMFLPLGVDCWIDNTRVVYNRSSGLVSNAPGVQIRVPGFGKTYSVEYLDSSKLAGYLHTLVQNLVNNGYVRDETVRAAPYDWRLEPGQQEEYYRKLAGLVEEMHAAYGKPVFLIGHSLGCLHLLYFLLRQPQAWKDRFIDGFISLGAPWGGSIKPMLVLASGDNQGIPIMSSIKLKEEQRITTTSPWMFPSRMAWPEDHVFISTPSFNYTGRDFQRFFADLHFEEGWYMWLQSRDLLAGLPAPGVEVYCLYGVGLPTPRTYIYDHGFPYTDPVGVLYEDGDDTVATRSTELCGLWQGRQPQPVHLLPLHGIQHLNMVFSNLTLEHINAILLGAYRQGPPASPTASPEPPPPE
proapoA-I-H155E, sequence (chain, as listed by the source H155E): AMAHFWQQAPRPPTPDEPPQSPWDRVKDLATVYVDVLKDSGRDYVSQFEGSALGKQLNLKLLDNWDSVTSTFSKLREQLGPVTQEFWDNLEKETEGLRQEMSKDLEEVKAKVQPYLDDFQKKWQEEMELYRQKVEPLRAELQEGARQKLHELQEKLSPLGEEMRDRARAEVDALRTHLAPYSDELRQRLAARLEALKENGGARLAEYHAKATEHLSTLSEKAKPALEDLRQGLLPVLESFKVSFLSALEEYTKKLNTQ
proapoA-I-A158E, sequence (chain, as listed by the source A158E): as the sequence (chain, as listed by the source H155E) above, with E170H, A173E counted along it
proapoA-I-V156K, sequence (chain, as listed by the source V156K): as the sequence (chain, as listed by the source H155E) above, with E170H, V171K counted along it
wild-type (WT) proapoA-I, sequence (chain, as listed by the source): as the sequence (chain, as listed by the source H155E) above, with E170H counted along it
proapoA-I-D157K, sequence (chain, as listed by the source D157K): as the sequence (chain, as listed by the source H155E) above, with E170H, D172K counted along it
proapoA-I-A154E, sequence (chain, as listed by the source A154E): as the sequence (chain, as listed by the source H155E) above, with A169E, E170H counted along it
Take B1: the Apparent Vmax (LCAT activation by POPC-rHDL) in the series with proapoA-I-A154E was determined as 3.5; with proapoA-I-A158E, 0.5; with proapoA-I-D157K, 1.8; in the series with proapoA-I-H155E, 2.6; with proapoA-I-V156K, 0.3; with wild-type (WT) proapoA-I, 3.3.

Values taken from patent publication US20050287636.
